This test concerns the target T1, Atg18 wildtype (Autophagy-related protein 18, Saccharomyces cerevisiae) (Saccharomyces cerevisiae), P43601.
T1 chain: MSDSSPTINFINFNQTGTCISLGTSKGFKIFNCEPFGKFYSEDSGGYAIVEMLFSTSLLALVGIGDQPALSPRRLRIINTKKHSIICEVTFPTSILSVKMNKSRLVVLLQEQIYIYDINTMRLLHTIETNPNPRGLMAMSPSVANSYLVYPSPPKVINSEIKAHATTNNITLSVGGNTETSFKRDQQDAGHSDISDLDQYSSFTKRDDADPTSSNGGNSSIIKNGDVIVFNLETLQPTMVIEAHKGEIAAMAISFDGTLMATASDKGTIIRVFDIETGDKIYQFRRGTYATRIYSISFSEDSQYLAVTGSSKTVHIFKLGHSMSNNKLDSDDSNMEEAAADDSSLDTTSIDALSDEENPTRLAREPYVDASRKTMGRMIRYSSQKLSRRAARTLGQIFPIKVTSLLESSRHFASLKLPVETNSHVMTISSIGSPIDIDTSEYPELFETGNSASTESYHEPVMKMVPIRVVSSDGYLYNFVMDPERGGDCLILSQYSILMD
Put plainly: single-particle cryo-EM, 2D classification. Particulars: remark: other sources report otherwise.

The results in this text go back to article doi:10.1101/2022.07.26.501514.

B1: Atg18 wildtype (Autophagy-related protein 18, Saccharomyces cerevisiae), P43601 1-500 (natural protein)
chain: T1 chain
On to B1, for which the stoichiometry N came to 2.

As usually defined, the stoichiometry N is the number of molecules, sites or subunits per partner or assembly.
